Laboratory results: the Immune Epitope Database (IEDB)
pKd: −log10 of the molar value.

Experiments:
[1] = target: HLA-B*15:42; test: IEDB peptide-MHC binding, purified MHC/competitive/fluorescence; filed as Kd, often an IC50 or EC50 that approximates it; ≥ and ≤ were set here for values at or beyond the usual limits of such assays; conditions: source organism: Mycobacterium tuberculosis H37Rv
[2] = target: HLA-B*45:06; test: as above; conditions: source organism: Mycobacterium tuberculosis H37Rv
[3] = target: HLA-B*83:01; test: as above; conditions: source organism: Mycobacterium tuberculosis H37Rv
[4] = target: HLA-C*15:02; test: IEDB peptide-MHC binding, purified MHC/direct/fluorescence; filed as Kd, often an IC50 or EC50 that approximates it; ≥ and ≤ were set here for values at or beyond the usual limits of such assays; conditions: source organism: Bacillus cereus G9241
[5] = target: HLA-A*02:03; test: IEDB peptide-MHC binding, purified MHC/competitive/fluorescence; filed as Kd, often an IC50 or EC50 that approximates it; ≥ and ≤ were set here for values at or beyond the usual limits of such assays; conditions: source organism: Bacillus cereus G9241
[6] = target: HLA-A*03:01; test: as above
[7] = target: HLA-A*26:01; test: as above
[8] = target: HLA-B*18:01; test: as above
[9] = target: HLA-B*27:03; test: as above
[10] = target: HLA-B*39:01; test: as above
[11] = target: HLA-B*57:01; test: as above
[12] = target: HLA-B*57:01; test: IEDB peptide-MHC binding, purified MHC/competitive/radioactivity; filed as Kd, often an IC50 or EC50 that approximates it; ≥ and ≤ were set here for values at or beyond the usual limits of such assays
[13] = target: HLA-B*58:01; test: as above
[14] = target: HLA-A*02:01; test: IEDB peptide-MHC binding, purified MHC/competitive/fluorescence; filed as Kd, often an IC50 or EC50 that approximates it; ≥ and ≤ were set here for values at or beyond the usual limits of such assays
[15] = target: HLA-A*02:12; test: as above
[16] = target: HLA-A*02:19; test: as above
[17] = target: HLA-A*24:03; test: as above
[18] = target: HLA-B*15:01; test: as above; conditions: source organism: Vibrio vulnificus CMCP6
[19] = target: HLA-B*51:01; test: as above
[20] = target: HLA-A*32:01; test: IEDB peptide-MHC binding, purified MHC/competitive/radioactivity; filed as Kd, often an IC50 or EC50 that approximates it; ≥ and ≤ were set here for values at or beyond the usual limits of such assays; conditions: source organism: Dengue virus 4 Philippines/H241/1956
[21] = target: HLA-A*01:01; test: IEDB peptide-MHC binding, purified MHC/direct/fluorescence; filed as Kd, often an IC50 or EC50 that approximates it; ≥ and ≤ were set here for values at or beyond the usual limits of such assays; conditions: source organism: Reston ebolavirus - Reston
[22] = target: HLA-A*02:01; test: as above; conditions: source organism: Reston ebolavirus - Reston
[23] = target: HLA-A*02:11; test: as above; conditions: source organism: Reston ebolavirus
[24] = target: HLA-A*02:12; test: as above; conditions: source organism: Reston ebolavirus
[25] = target: HLA-A*03:01; test: as above; conditions: source organism: Reston ebolavirus - Reston
[26] = target: HLA-A*23:01; test: as above; conditions: source organism: Reston ebolavirus
[27] = target: HLA-A*24:03; test: as above; conditions: source organism: Reston ebolavirus
[28] = target: HLA-A*29:02; test: as above; conditions: source organism: Reston ebolavirus - Reston
[29] = target: HLA-A*31:01; test: as above; conditions: source organism: Reston ebolavirus - Reston
[30] = target: HLA-A*68:02; test: as above; conditions: source organism: Reston ebolavirus
[31] = target: HLA-A*69:01; test: as above; conditions: source organism: Reston ebolavirus - Reston
[32] = target: HLA-B*07:02; test: as above; conditions: source organism: Reston ebolavirus - Reston
[33] = target: HLA-B*15:01; test: as above; conditions: source organism: Reston ebolavirus - Reston
[34] = target: HLA-B*18:01; test: as above; conditions: source organism: Reston ebolavirus - Reston
[35] = target: HLA-B*27:05; test: as above; conditions: source organism: Reston ebolavirus - Reston
[36] = target: HLA-B*39:01; test: as above; conditions: source organism: Reston ebolavirus - Reston
[37] = target: HLA-B*40:01; test: as above; conditions: source organism: Reston ebolavirus - Reston
[38] = target: HLA-B*44:02; test: as above; conditions: source organism: Reston ebolavirus - Reston
[39] = target: HLA-B*46:01; test: as above; conditions: source organism: Reston ebolavirus - Reston
[40] = target: HLA-B*48:01; test: as above; conditions: source organism: Reston ebolavirus - Reston
[41] = target: HLA-B*57:01; test: as above; conditions: source organism: Reston ebolavirus - Reston
[42] = target: HLA-B*58:01; test: as above; conditions: source organism: Reston ebolavirus - Reston
[43] = target: HLA-A*68:02; test: IEDB peptide-MHC binding, purified MHC/competitive/fluorescence; filed as Kd, often an IC50 or EC50 that approximates it; ≥ and ≤ were set here for values at or beyond the usual limits of such assays; conditions: source organism: Escherichia coli str. K-12 substr. W3110
[44] = target: HLA-A*69:01; test: as above; conditions: source organism: Escherichia coli str. K-12 substr. W3110
[45] = target: HLA-B*15:17; test: as above; conditions: source organism: Escherichia coli str. K-12 substr. W3110
[46] = target: HLA-B*46:01; test: as above; conditions: source organism: Escherichia coli str. K-12 substr. W3110
[47] = source organism: Bacillus cereus G9241
[48] = source organism: Dengue virus 2 Jamaica/1409/1983
[49] = source organism: Vibrio vulnificus CMCP6
[50] = source organism: Dengue virus 4 Philippines/H241/1956
[51] = source organism: Reston ebolavirus
[52] = source organism: Dengue virus 1 Brazil/97-11/1997
[53] = source organism: Escherichia coli str. K-12 substr. W3110

Measured: pKd

FPRIGTAVF
5.08: [3]
≤ 5.30: [1] | [2]

ITNPFFYQM
6.57: [11]; [47]
≤ 4.70: [5] | [6]; [47] | [7]; [47] | [8]; [47] | [9]; [47] | [10]; [47]
7.25: [4]

ASSLLKNDIP
5.68: [13]; [48]
5.07: [12]; [48]

LMLHQQYNQ
6.72: [14]; [49]
≤ 4.70: [16]; [49] | [6]; [49] | [17]; [49] | [7]; [49] | [18] | [8]; [49] | [9]; [49] | [10]; [49] | [19]; [49] | [11]; [49]
6.73: [15]; [49]

RSWNTGFDW
7.75: [13]; [50]
7.86: [12]; [50]
7.35: [20]

VASGLLWVAE
≤ 4.15: [12]; [50]
7.12: [13]; [50]

KHDFIDNPL
≤ 4.70: [21] | [22] | [23] | [24] | [25] | [26] | [27] | [28] | [29] | [30] | [31] | [32] | [33] | [34] | [35] | [37] | [38] | [39] | [40] | [41] | [42] | [7]; [51] | [9]; [51] | [19]; [51]
5.31: [36]

ASSALLWMAS
4.77: [12]; [52] | [13]; [52]

KSYAQMWQL
8.11: [13]; [52]
8.70: [12]; [52]

KAINVLRGF
7.37: [13]; [48]
8.46: [12]; [48]

TAAVLMLVAH
5.26: [13]; [52]

IQFDWYPTS
≤ 4.70: [14]; [53] | [16]; [53] | [6]; [53] | [17]; [53] | [7]; [53] | [43] | [44] | [45] | [8]; [53] | [9]; [53] | [10]; [53] | [46] | [19]; [53] | [11]; [53]
6.20: [15]; [53]
